In patent US9777041B2, “Protein nanofibers from self-assembling pentamers” (New York University, priority 2013, dated 2017):

Experiments:
[1] = Transmission electron microscopy of protein fibers; assay type: physicochemical; settings: pH 4, 50 mM PB
Description: Transmission electron microscopy: A JEOL JEM-1400 transmission electron microscope (TEM) was used to study the supramolecular protein structure. […] After 1 minute, the grids were blotted using filter paper and rinsed with 3-4 drops Milli Q water to remove excess salts from the buffer. After blotting with filter paper, the sample was negatively stained by adding 3 μL of 1% filtered uranyl acetate, blotted using filter paper, and dried at room temperature for 10-15 minutes. ImageJ software was used to measure the fibers dimensions.

[2] = ATR-FTIR secondary structure of solid-state protein; assay type: physicochemical; settings: for Random, percent composition / α helix, percent composition / β sheet, percent composition: 10 μM protein in 50 mM PB
Description: Attenuated Total Reflectance Fourier Transform Infrared Spectroscopy (ATR-FTIR): ATR-FTIR experiments were performed using Perkin Elmer System 2000 FT-IR with DuraSamplIR II T diamond ATR accessory and equipped with a MCT-A detector. Approximately, 5 μL of peptide solution (10 μM in 50 mM PB, pH 4, 8, and 10) was added on the diamond ATR surface. The spectrum (128 scans) was measured at room temperature over a range of 4000-400 cm^−1 with 0.5 cm^−1 resolution. PeakFit software was used to process the data, which involved a 2nd derivative zero baseline correction of the amide I region between 1700-1600 cm^−1 and deconvolution of peaks with a Gaussian function. All readings represent the average of two trials.
To quantifying the secondary structure of the protein in its solid-state, ATR-FTIR experiments were conducted to evaluate secondary structure of insoluble Q fibers at pH 4, 8, and 10 (Table 8). The frequency measured in the regions of the amide I and amide II absorptions of a protein correlate to the secondary structural motifs within the protein, and were thereby used to assess conformation of the protein in its solid-state (FIGS. 20a-20d). Secondary structure conformation based on ATR-FTIR data for Q in 50 mM PB at pH 4, 8, and 10, and in the presence of curcumin at a 5:1 molar ratio with Q at pH 4 are shown in […]. Percent composition was determined from relative areas of peaks fit to spectra (FIGS. 20a-20d).
Secondary structure conformation based on ATR-FTIR data for 10 μM protein in 50 mM PB before and after templation of AuNPs is provided in Table 10. Percent composition was determined from relative areas of peaks fit to spectra (see spectra FIGS. 37a-37d, FIGS. 38a-38d).

[3] = curcumin at 5:1 molar ratio, pH 4

Substance: Q: Q54 protein, SEQ ID NO:2, variant of COMPcc; coiled-coil that self-assembles into homopentamers and nanofibers (MRGSHHHHHHGSIEGRVKEITFLKNTAPQMLRELQETNAALQDVRELLRQQSKL)
- fiber formation seen by TEM [1]: regularly forms fibers with high levels of structure
- protofibril diameters [1]: 3.5±0.5 nm
- fiber diameters ([1]; listed as Q54): 50-100 nm
- protofibril diameters ([1]; listed as Q54): 3-4 nm
- Random, percent composition ([2]; +AuNP (after templation)): 27%
- α helix, percent composition ([2]; +AuNP (after templation)): 30%
- β sheet, percent composition ([2]; +AuNP (after templation)): 43%
- Random, percent composition ([2]; before templation of AuNPs): 0%
- α helix, percent composition ([2]; before templation of AuNPs): 65%
- β sheet, percent composition ([2]; before templation of AuNPs): 35%
- α helix % composition [2, 3]: 79%
- β sheet % composition [2, 3]: 10%
- Random coil % composition ([2]; curcumin at 5:1 molar ratio, pH 4, 1640-1648 cm^−1): 12%
- β sheet % composition ([2]; pH 4, 50 mM PB, 1625-1640, 1675-1695 cm^−1): 38%
- α helix % composition ([2]; pH 4, 50 mM PB, 1648-1660 cm^−1): 62%
- α helix % composition ([2]; pH 8, 50 mM PB): 63%
- β sheet % composition ([2]; pH 8, 50 mM PB): 37%
- α helix % composition ([2]; pH 10, 50 mM PB): 68%
- β sheet % composition ([2]; pH 10, 50 mM PB): 32%
